Key:
[1] = target: HSP70 (antigen; source and nucleotide state not stated) (Homo sapiens (Human)) (UniProt P0DMV8); assay: Octet epitope binning, sandwich format on HSP70; table row N15F2-5 (named as competitor), column C92F3-5; the sheet does not say which of row and column was loaded first
[2] = target: HSP70 (antigen; source and nucleotide state not stated) (Homo sapiens (Human)) (UniProt P0DMV8); assay: Octet epitope binning, sandwich format on HSP70; table row C92F3-5, column C92F3-5 (self pair)
[3] = target: HSP70 (antigen; source and nucleotide state not stated) (Homo sapiens (Human)) (UniProt P0DMV8); assay: Octet epitope binning, sandwich format on HSP70; table row m77A (named as competitor), column C92F3-5; the sheet does not say which of row and column was loaded first
[4] = target: HSP70 (antigen; source and nucleotide state not stated) (Homo sapiens (Human)) (UniProt P0DMV8); assay: Octet epitope binning, sandwich format on HSP70; table row N15F2-5, column N15F2-5 (self pair)
[5] = target: HSP70 (antigen; source and nucleotide state not stated) (Homo sapiens (Human)) (UniProt P0DMV8); assay: Octet epitope binning, sandwich format on HSP70; table row C92F3-5 (named as competitor), column N15F2-5; the sheet does not say which of row and column was loaded first
[6] = target: HSP70 (antigen; source and nucleotide state not stated) (Homo sapiens (Human)) (UniProt P0DMV8); assay: Octet epitope binning, sandwich format on HSP70; table row m77A (named as competitor), column N15F2-5; the sheet does not say which of row and column was loaded first

Chain of HSP70 (antigen; source and nucleotide state not stated) (Homo sapiens (Human)) (P0DMV8 whole entry): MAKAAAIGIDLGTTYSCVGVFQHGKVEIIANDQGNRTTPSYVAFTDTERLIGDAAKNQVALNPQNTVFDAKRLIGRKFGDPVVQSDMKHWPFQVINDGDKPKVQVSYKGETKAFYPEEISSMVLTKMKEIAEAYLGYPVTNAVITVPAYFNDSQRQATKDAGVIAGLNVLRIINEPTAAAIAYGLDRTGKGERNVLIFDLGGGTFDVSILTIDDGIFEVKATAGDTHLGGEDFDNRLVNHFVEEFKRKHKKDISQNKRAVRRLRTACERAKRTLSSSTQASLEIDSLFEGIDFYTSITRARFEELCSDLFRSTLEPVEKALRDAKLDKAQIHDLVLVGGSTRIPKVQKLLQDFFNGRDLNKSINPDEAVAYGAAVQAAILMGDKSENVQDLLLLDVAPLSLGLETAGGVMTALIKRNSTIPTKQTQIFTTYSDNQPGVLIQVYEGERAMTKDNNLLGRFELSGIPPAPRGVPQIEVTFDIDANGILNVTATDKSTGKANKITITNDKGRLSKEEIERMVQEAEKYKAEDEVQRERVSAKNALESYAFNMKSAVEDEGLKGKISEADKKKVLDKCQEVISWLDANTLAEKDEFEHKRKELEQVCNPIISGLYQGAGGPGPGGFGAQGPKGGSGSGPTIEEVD

Row | Substance | percent of maximal binding in the presence of the potentially competing antibody [1] | percent of maximal binding in the presence of the potentially competing antibody [2] | percent of maximal binding in the presence of the potentially competing antibody [3] | percent of maximal binding in the presence of the potentially competing antibody [4] | percent of maximal binding in the presence of the potentially competing antibody [5] | percent of maximal binding in the presence of the potentially competing antibody [6]
1 | C92F3-5 (Fisher Scientific) (antibody) | 0.492 | 0 | 0.714 |  |  | 
2 | N15F2-5 (Enzo Life Sciences) (antibody) |  |  |  | 0 | 0.489 | 0.738

— US20230128075A1
